Measurements: ChEMBL document CHEMBL1137310, “Stereoselective chemoenzymatic synthesis of the four stereoisomers of l-2-(2-carboxycyclobutyl)glycine and pharmacological characterization at human excitatory amino acid transporter subtypes 1, 2, and 3” (J Med Chem, 2006)

B1: Excitatory amino acid transporter 1 (Homo sapiens), P43003 (protein)
chain: MTKSNGEEPKMGGRMERFQQGVRKRTLLAKKKVQNITKEDVKSYLFRNAFVLLTVTAVIVGTILGFTLRPYRMSYREVKYFSFPGELLMRMLQMLVLPLIISSLVTGMAALDSKASGKMGMRAVVYYMTTTIIAVVIGIIIVIIIHPGKGTKENMHREGKIVRVTAADAFLDLIRNMFPPNLVEACFKQFKTNYEKRSFKVPIQANETLVGAVINNVSEAMETLTRITEELVPVPGSVNGVNALGLVVFSMCFGFVIGNMKEQGQALREFFDSLNEAIMRLVAVIMWYAPVGILFLIAGKIVEMEDMGVIGGQLAMYTVTVIVGLLIHAVIVLPLLYFLVTRKNPWVFIGGLLQALITALGTSSSSATLPITFKCLEENNGVDKRVTRFVLPVGATINMDGTALYEALAAIFIAQVNNFELNFGQIITISITATAASIGAAGIPQAGLVTMVIVLTSVGLPTDDITLIIAVDWFLDRLRTTTNVLGDSLGAGIVEHLSRHELKNRDVEMGNSVIEENEMKKPYQLIAQDNETEKPIDSETKM
B2: Excitatory amino acid transporter 3 (Homo sapiens), P43005 (protein)
chain: MGKPARKGCEWKRFLKNNWVLLSTVAAVVLGITTGVLVREHSNLSTLEKFYFAFPGEILMRMLKLIILPLIISSMITGVAALDSNVSGKIGLRAVVYYFCTTLIAVILGIVLVVSIKPGVTQKVGEIARTGSTPEVSTVDAMLDLIRNMFPENLVQACFQQYKTKREEVKPPSDPEMNMTEESFTAVMTTAISKNKTKEYKIVGMYSDGINVLGLIVFCLVFGLVIGKMGEKGQILVDFFNALSDATMKIVQIIMCYMPLGILFLIAGKIIEVEDWEIFRKLGLYMATVLTGLAIHSIVILPLIYFIVVRKNPFRFAMGMAQALLTALMISSSSATLPVTFRCAEENNQVDKRITRFVLPVGATINMDGTALYEAVAAVFIAQLNDLDLGIGQIITISITATSASIGAAGVPQAGLVTMVIVLSAVGLPAEDVTLIIAVDWLLDRFRTMVNVLGDAFGTGIVEKLSKKELEQMDVSSEVNIVNPFALESTILDNEDSDTKKSYVNGGFAVDKSDTISFTQTSQF

Legend:
Assay type in all cases: functional, cell-based
[1] = substrate: N[C@@H](CCC(=O)O)C(=O)O; test: (§1) Substrate activity at human EAAT1 expressed in HEK293 cells by FLIPR membrane potential assay
[2] = substrate: N[C@H](C(=O)O)[C@@H]1CC[C@H]1C(=O)O; test: as §1
[3] = substrate: N[C@H](C(=O)O)[C@H]1CC[C@@H]1C(=O)O; test: as §1
[4] = substrate: N[C@@H](CCC(=O)O)C(=O)O; test: (§2) Substrate activity at human EAAT3 expressed in HEK293 cells by FLIPR membrane potential assay
[5] = substrate: N[C@H](C(=O)O)[C@H]1CC[C@@H]1C(=O)O; test: as §2

Protein	Km [1] [µM]	Km [2] [µM]	Km [3] [µM]	Km [4] [µM]	Km [5] [µM]
B1	7.9	96	300		
B2				9.9	300
